Conditions in all cases: modification not given
Assay [1] concerns the target T1, human GIP receptor (GIPR) (human), P48546.
T1 chain: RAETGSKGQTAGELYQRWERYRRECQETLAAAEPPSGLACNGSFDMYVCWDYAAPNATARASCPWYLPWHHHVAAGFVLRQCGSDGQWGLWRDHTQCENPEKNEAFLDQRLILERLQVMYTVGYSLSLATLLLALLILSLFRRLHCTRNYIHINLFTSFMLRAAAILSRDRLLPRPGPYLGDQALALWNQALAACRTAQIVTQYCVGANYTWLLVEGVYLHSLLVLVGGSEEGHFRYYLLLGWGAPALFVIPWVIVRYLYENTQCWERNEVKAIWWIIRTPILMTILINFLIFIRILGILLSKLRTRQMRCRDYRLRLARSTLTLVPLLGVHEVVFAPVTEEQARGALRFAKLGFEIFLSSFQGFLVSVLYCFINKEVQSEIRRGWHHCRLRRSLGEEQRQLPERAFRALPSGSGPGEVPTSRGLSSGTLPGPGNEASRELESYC
In words: competition, 125I-GIP(1-42).

Assay [2] deals with T1, human GIP receptor (GIPR) (human), …. Kind of assay: other, Schild cAMP.
The target is the same in assay [3]. In words: competition, 125I-GIP(2-30)NH2.
For assay [4] the target is unchanged. In words: competition, 125I-GIP(1-30)NH2.
Assay [5] has the same target. In words: competition, 125I-GIP(3-30)NH2.
The target is the same in assay [6]. Kind of assay: competition.
Assay [7] has the same target. In words: competition.
Assay [8] shares this target. Kind of assay: competition.
The target is the same in assay [9].
Assay [10] has the same target. In words: competition, 125I-hGIP.
The target is the same in assay [11].

In general, Ki refers to a measure of affinity in units of concentration, obtained from inhibition or displacement. Low values mean higher affinity, high ones lower affinity. Usually IC50 stands for the concentration at which inhibition is half-maximal. The low end stands for higher potency, the high end for lower potency.

Like-named read-outs stand apart in the source and are kept apart here. No end group written: not given here.

As to DYSIAMDKIHQQDFVNWLLAQK (not fully specified (C-terminus)) [GIP(9-30)NH2], the Ki in assay [1] was 307 nM.

In [1], SDYSIAMDKIHQQDFVNWLLAQK (not fully specified (C-terminus)) [GIP(8-30)NH2] yielded an inhibition constant (Ki) of 79 nM. Against the preceding molecule, the Ki is about 3.9-fold lower.

For the molecule EGTFISDYSIAMDKIAQQDFVNWLLAQK [hGIP(3-30)H18A], the Ki in assay [2] was 35 nM.

Regarding AEGTFISDYSIAMDKIHQQDFVNWLLAQK (not fully specified (C-terminus)) [GIP(2-30)NH2], the IC50 in assay [3] came to 2.7 nM; in assay [4], 26 nM; in assay [5], 7.7 nM. The inhibitory constant (Ki) in assay [1] turned out to be 14.3 nM.

For the molecule EGTFISDYSIAMDAIAQQDFVNWLLAQK [hGIP(3-30)K16A H18A], the inhibition constant Ki in assay [2] was 15 nM.

In the case of EGTFISDYSIAMDKIHQQDFVNWLLAQK [GIP(3-30)NH2], the IC50 in [6] turned out to be 3.4 nM; in assay [7], 0.76 nM; in assay [8] it was 4.4 nM. Also, the Ki stood at 2.3 nM in assay [6] and 14.9 nM in assay [9].

As to GTFISDYSIAMDKIHQQDFVNWLLAQK (not fully specified (C-terminus)) [GIP(4-30)NH2], in [1], the inhibitory constant (Ki) stood at 21.5 nM.

Regarding TFISDYSIAMDKIHQQDFVNWLLAQK (not fully specified (C-terminus)) [GIP(5-30)NH2], the inhibition constant (Ki) in [2] is 15.2 nM; in [1], 5.9 nM.

Consider FISDYSIAMDKIHQQDFVNWLLAQK (not fully specified (C-terminus)) [GIP(6-30)NH2], for which the figures for the half-inhibitory concentration (IC50) in assay [3], in assay [4] and in [5] were 340 nM, 1060 nM and 370 nM, respectively. The same molecule registered an inhibition constant (Ki) in assay [1] of 347 nM.

As to EGTFISDYSIAMDKIKQQDFVNWLLAQK [hGIP(3-30)H18K], the IC50 in assay [10] was 7.8 nM. In addition, in [2], the Ki amounted to 37 nM.

Turning to EGTFISDYSIAMDKIHQQDFVNWLLAQK [hGIP(3-30)], the IC50 in [6] came out at 16 nM. The molecule also gave an inhibition constant Ki in assay [11] of 15 nM.

In turn, EGTFISDYSIAMEKIAQQDFVNWLLAQK [hGIP(3-30)D15E H18A] yielded an inhibitory constant (Ki) in [2] of 7.9 nM. In other words, the single-digit nanomolar range.
